The values below are quoted from earlier work in PMC11970764.

pKd: −log10 of the molar value.

This data set has as its target HIF-1α PAS-B (Homo sapiens) (UniProt Q16665). The data set can be described thus: ITC. In general terms: ITC needs no label: the signal is the heat of the interaction.
Sequence of UniProt Q16665 (Q16665 238-349): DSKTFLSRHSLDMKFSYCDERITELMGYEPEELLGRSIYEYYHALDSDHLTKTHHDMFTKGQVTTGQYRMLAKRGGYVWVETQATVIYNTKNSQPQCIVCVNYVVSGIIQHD

The term pKd denotes −log10 of the Kd, conventionally taken in molar units. As to Cyclo-C(TAT)LLFVY, the pKd is 6.91.
